# Results: patent US20150329597A1
# What was measured:
# [1] = biological target: RSV F trimerized-monomer: RSV Monomer (Delp23 Furdel) + HRA peptide (respiratory syncytial virus); assay: preparatory SEC of the trimerized F fraction with about 10-fold excess D25 Fab; trimerized monomer alone ~1.2 mls
# [2] = biological target: RSV F monomer (uncleaved RSV F Delp23 Furdel; Delp23 Furdel Truncated HIS construct) (respiratory syncytial virus); assay: analytical HPLC-SEC of F monomer with 1:1 molar D25 Fab; monomer alone ~11.5 min
# [3] = biological target: RSV F monomer (uncleaved RSV F Delp23 Furdel; Delp23 Furdel Truncated HIS construct) (respiratory syncytial virus); assay: SPR (BIAcore), D25 Fab immobilised on CM5 chip, F monomer as analyte, 1:1 fit
# [4] = biological target: RSV F monomer (uncleaved RSV F Delp23 Furdel; Delp23 Furdel Truncated HIS construct) (respiratory syncytial virus); assay: preparatory SEC of F monomer with D25 Fab at 1:1 molar ratio; monomer alone ~1.4 mls
substance,measurement,setting,value
D25 Fab harboring a HIS-tag and Strep-tag,Retention Volume Micro-Superdex 200 (mixture),[1],1.1 mls
same,Retention Time Wyatt SEC WTC-030S5 (mixture),[2],10.3 min
same,Kd,[3],0.053 nM
same,koff,[3],9.9e-06 s⁻¹
same,kon,[3],190000 M⁻¹ s⁻¹
same,Retention Volume Micro-Superdex 200 (mixture),[4],1.3 mls
